Measured values from publication PMC8954901, “The Family Keeps on Growing: Four Novel Fungal OYEs Characterized” (International Journal of Molecular Sciences, 2022).
One block for each molecule: values may come before it.

How the values were obtained:
[1] = biological target: BfOYE1 (Botryotinia fuckeliana B05.10); assay: native gel or EMSA
[2] = biological target: BfOYE1 (Botryotinia fuckeliana B05.10); assay: SEC; analytical gel filtration, Superdex 200 10/300 GL, 150 ug purified protein, Tris-HCl pH 8.0 50 mM, NaCl 150 mM, 1 mL/min; apparent molecular weight from a calibration curve
AnOYE8 = biological target: T1, AnOYE8 (Aspergillus niger, UniProt A2QBV3); assay: X-ray crystal structure, […] Å; type: binding; details: active site, non-covalently bound; pH 6.5 crystals
T1 construct: gene An02g01330
T1 sequence (A2QBV3 1-421): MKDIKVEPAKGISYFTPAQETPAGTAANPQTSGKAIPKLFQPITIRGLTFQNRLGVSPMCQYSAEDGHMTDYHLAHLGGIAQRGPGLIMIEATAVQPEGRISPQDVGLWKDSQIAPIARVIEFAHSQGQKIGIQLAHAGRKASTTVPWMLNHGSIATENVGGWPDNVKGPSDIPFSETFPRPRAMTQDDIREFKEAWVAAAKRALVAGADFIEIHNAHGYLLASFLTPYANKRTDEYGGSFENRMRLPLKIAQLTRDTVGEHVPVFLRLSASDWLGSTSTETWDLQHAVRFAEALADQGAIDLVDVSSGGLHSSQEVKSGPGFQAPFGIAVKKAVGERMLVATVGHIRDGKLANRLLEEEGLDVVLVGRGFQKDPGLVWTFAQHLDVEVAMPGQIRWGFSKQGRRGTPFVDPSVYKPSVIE

[3] = biological target: AnOYE8 (Aspergillus niger CBS 513.88); assay: native gel or EMSA; BN-PAGE, NativePAGE 3 to 12% Bis-Tris gel, 12.5 ug of sample from each gel filtration peak, 150 V for 2 h; BSA and HSA for comparison of the MWs
[4] = biological target: AnOYE8 (Aspergillus niger CBS 513.88); assay: SEC; analytical gel filtration, Superdex 200 10/300 GL, 150 ug purified protein, Tris-HCl pH 8.0 50 mM, NaCl 150 mM, 1 mL/min; apparent molecular weight from a calibration curve
[5] = biological target: AnOYE8 (Aspergillus niger CBS 513.88); assay: crystal structure; N-terminal His6-tagged AnOYE8, 15 mg/mL in Tris-HCl pH 8.0 50 mM; PEG 5000 MME 18% w/v, MES pH 6.5 0.1 M, ammonium sulphate 0.2 M, 293 K; space group C121, four molecules per asymmetric unit
purified protein [6] = substrate: NC(=O)C1=CN([C@@H]2O[C@H](COP(=O)(O)OP(=O)(O)OC[C@H]3O[C@@H](n4cnc5c(N)ncnc54)[C@H](OP(=O)(O)O)[C@@H]3O)[C@@H](O)[C@H]2O)C=CC1; assay: purified protein; type: biochemical, Aspergillus niger; details: maleimide 1 mM, Tris-HCl 50 mM pH 8.0, 25 °C, enzyme 20 nM
purified protein [7] = substrate: O=C1C=CC(=O)N1; assay: purified protein; type: biochemical, Aspergillus niger; details: NADPH 100 µM, Tris-HCl 50 mM pH 8.0, 25 °C, enzyme 20 nM
purified protein [8] = substrate: C=CC(=O)CCCCC; assay: purified protein; type: biochemical, Botrytis cinerea; details: NADPH 100 µM, Tris-HCl 50 mM pH 8.0, 25 °C, enzyme 200 nM
purified protein [9] = substrate: CC1=CCCCC1=O; assay: purified protein; type: biochemical, Botrytis cinerea; details: NADPH 100 µM, Tris-HCl 50 mM pH 8.0, 25 °C, enzyme 200 nM
purified protein [10] = substrate: NC(=O)C1=CN([C@@H]2O[C@H](COP(=O)(O)OP(=O)(O)OC[C@H]3O[C@@H](n4cnc5c(N)ncnc54)[C@H](OP(=O)(O)O)[C@@H]3O)[C@@H](O)[C@H]2O)C=CC1; assay: purified protein; type: biochemical, Botrytis cinerea; details: maleimide 1 mM, Tris-HCl 50 mM pH 8.0, 25 °C, enzyme 20 nM
purified protein [11] = substrate: O=C1C=CC(=O)N1; assay: purified protein; type: biochemical, Botrytis cinerea; details: NADPH 100 µM, Tris-HCl 50 mM pH 8.0, 25 °C, enzyme 20 nM
purified protein [12] = substrate: O=C1C=CCC1; assay: purified protein; type: biochemical, Botrytis cinerea; details: NADPH 100 µM, Tris-HCl 50 mM pH 8.0, 25 °C, enzyme 200 nM
purified protein [13] = substrate: O=C1C=CCCC1; assay: purified protein; type: biochemical, Botrytis cinerea; details: NADPH 100 µM, Tris-HCl 50 mM pH 8.0, 25 °C, enzyme 200 nM

Molecule: BfOYE1 (enzyme)
stoichiometry N [1]: 2 | stoichiometry N [2]: 2

Molecule: Cc1cc2nc3c(=O)[nH]c(=O)nc-3n(C[C@H](O)[C@H](O)[C@H](O)COP(=O)(O)O)c2cc1C [FMN]
X-ray crystal structure, 2.8 Å (AnOYE8): AnOYE8 accommodated a non-covalently bound FMN cofactor molecule

stoichiometry N [3]: 2 | stoichiometry N [4]: 2 | stoichiometry N [5]: 2
Molecule: AnOYE8 (enzyme)

B1: AnOYE2 (Aspergillus niger CBS 513.88) (protein)
chain: MCSKLFQPLQIGKTNLEHRVVMAPLTRFRADSQHVPLPMATTYYEQRASVPGTLLIAEATLISPSAGGVPHAPGVWSEEQVNGWKKITEAVHKKGSFIFCQLIAAGRAADPAQLHAEGGFMLHAPSPIPIEPGMPVPKELDEIEVQEIINDFAMAAKNAIRAGFDGVEIHGANGYLVDQFLQDVSNKRNDKWGGSIPNRARFGLEVAKAVADAIGADRLGFRLSPWNTWQSMKMVDPVPQFTYFVERLQQLGLAYLHVIESRVINNVDCEKEGSIKFLLDVWGKSAPVIVAGGYRPENVENALEEEYKDYKVAVAFGRHFIANPDLPFRIRHDIHLNPYDRESFYTPLQENGYTDYPFSAEFIKSKTKC
Km (purified protein [6]): 0.037 ± 0.01 mM | kcat (purified protein [6]): 8 ± 0.4 s⁻¹ | kcat/Km (purified protein [6]): 216000 M⁻¹ s⁻¹ | Km (purified protein [7]): 0.01 ± 0.00 mM | kcat (purified protein [7]): 7.38 ± 0.66 s⁻¹ | kcat/Km (purified protein [7]): 738000 M⁻¹ s⁻¹

B2: BfOYE4 (Botrytis cinerea B05.10) (protein)
chain: MSTPTPHPQHGVPCGTSTPRPGLLNTPAPGVPFYTPLQSPPSGTALHLSPSTPKLFTPLKIRSLTLQNRIMLSPMCQYSASNGHFTPWHMAHLGGIISRGPGLSMVEATSVLPEGRITPEDSGLWLDSQGDKLKEVVQFAHSQGQLIGIQLSHAGRKASMVAPWLDRSAVATEEAGGWPTKVKGPSAIPYDEHHYKPSAMTLEDIQEFKDAWAASLKRALKAGFDVIEIHNAHGYLLHEFVSPVSNKRTDQYGGSFENRIRLTLEIVEITRKIIPESMPLFLRISATDWLDYEGFGEESWTVADSARLAGILADRGVDLMDVSSGANHPRQKITAGLGYQAPFAKEIKRVVGERMLVGTVGMIGSGRQAEGLLSGMGGERGVDEGEEEEGKGTELDLVIVARGFQKNPGLVWEWAEELGVRIMVAHQMRWGFRGKAGGH
notes: N-terminal His6 tag, E. coli BL21(DE3), 421 residues, dimer in crystal, several oligomeric species in solution; cloning reported elsewhere
Km (purified protein [8]): 2.72 ± 0.50 mM | kcat (purified protein [8]): 22.6 ± 1.14 s⁻¹ | kcat/Km (purified protein [8]): 8300 M⁻¹ s⁻¹ | Km (purified protein [9]): 1.83 ± 0.18 mM | kcat (purified protein [9]): 0.56 ± 0.013 s⁻¹ | kcat/Km (purified protein [9]): 300 M⁻¹ s⁻¹ | Km (purified protein [10]): 0.13 ± 0.02 mM | kcat (purified protein [10]): 89.2 ± 3.37 s⁻¹ | kcat/Km (purified protein [10]): 686000 M⁻¹ s⁻¹ | Km (purified protein [11]): 0.07 ± 0.01 mM | kcat (purified protein [11]): 36.3 ± 1.12 s⁻¹ | kcat/Km (purified protein [11]): 519000 M⁻¹ s⁻¹ | Km (purified protein [12]): 1.07 ± 0.12 mM | kcat (purified protein [12]): 1.06 ± 0.03 s⁻¹ | kcat/Km (purified protein [12]): 1000 M⁻¹ s⁻¹ | Km (purified protein [13]): 0.65 ± 0.09 mM | kcat (purified protein [13]): 2.57 ± 0.07 s⁻¹ | kcat/Km (purified protein [13]): 3900 M⁻¹ s⁻¹
